For experiment [1], the target named is T1, bovine serum albumin (bovine, UniProt P02769 25-607).
T1 construct: Negative control; also called BSA
The experiment can be described thus: ELISA, BSA as negative control, detection with HRP-Anti-FLAG. On the technique in general: ELISA stands for enzyme-linked immunosorbent assay.
Description: recF (4 μg/mL) was coated on an ELISA plate and incubated overnight at 4° C. and then blocked with PBS+3% milk at 37° C. for 1 h. […] The plate was then washed four times with PBST (PBS+0.05% Tween 20) and then incubated with HRP-Anti-FLAG monoclonal antibody at 37° C. for 1 h. The ABTS was added for color development. Bovine serum albumin (BSA) was used as a negative control.

For experiment [2], the target named is F protein of respiratory syncytial virus type A (RSV A) (human respiratory syncytial virus type A). The experiment can be described thus: cell-based or functional assay.
The target of experiment [3] is F protein of respiratory syncytial virus type B (RSV B) (human respiratory syncytial virus type B). The experiment can be described thus: cell-based or functional assay.
The target of experiment [4] is T2, recombinant human respiratory syncytial virus envelope protein F fused to the Fc fragment of antibody IgG1 … (human respiratory syncytial virus, UniProt P03420 26-524; P01857 99-330 = IgG part).
T2 construct: also called recombinant F protein; RSV F protein
The experiment can be described thus: ELISA, recF (4 ug/mL) coated, detection with HRP-Anti-FLAG.

What is called EC50 is the concentration at which the effect is half-maximal.

T1 sequence (P02769 25-607 limits assumed): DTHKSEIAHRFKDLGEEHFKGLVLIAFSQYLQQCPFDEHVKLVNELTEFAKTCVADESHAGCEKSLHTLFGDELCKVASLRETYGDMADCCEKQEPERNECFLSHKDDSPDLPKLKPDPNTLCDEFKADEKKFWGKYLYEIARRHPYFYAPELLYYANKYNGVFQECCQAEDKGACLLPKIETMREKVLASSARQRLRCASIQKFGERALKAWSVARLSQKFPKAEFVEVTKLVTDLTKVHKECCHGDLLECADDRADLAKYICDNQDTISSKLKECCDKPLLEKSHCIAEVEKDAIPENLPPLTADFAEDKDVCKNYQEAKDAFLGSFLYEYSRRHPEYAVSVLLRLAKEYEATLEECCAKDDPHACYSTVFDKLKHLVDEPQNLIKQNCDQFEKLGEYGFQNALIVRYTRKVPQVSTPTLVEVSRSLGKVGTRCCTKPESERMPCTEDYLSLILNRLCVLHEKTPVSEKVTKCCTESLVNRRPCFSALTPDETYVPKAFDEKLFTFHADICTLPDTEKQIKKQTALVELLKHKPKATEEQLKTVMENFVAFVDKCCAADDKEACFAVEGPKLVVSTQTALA
T2 sequence (P03420 26-524, tags or fused parts left off): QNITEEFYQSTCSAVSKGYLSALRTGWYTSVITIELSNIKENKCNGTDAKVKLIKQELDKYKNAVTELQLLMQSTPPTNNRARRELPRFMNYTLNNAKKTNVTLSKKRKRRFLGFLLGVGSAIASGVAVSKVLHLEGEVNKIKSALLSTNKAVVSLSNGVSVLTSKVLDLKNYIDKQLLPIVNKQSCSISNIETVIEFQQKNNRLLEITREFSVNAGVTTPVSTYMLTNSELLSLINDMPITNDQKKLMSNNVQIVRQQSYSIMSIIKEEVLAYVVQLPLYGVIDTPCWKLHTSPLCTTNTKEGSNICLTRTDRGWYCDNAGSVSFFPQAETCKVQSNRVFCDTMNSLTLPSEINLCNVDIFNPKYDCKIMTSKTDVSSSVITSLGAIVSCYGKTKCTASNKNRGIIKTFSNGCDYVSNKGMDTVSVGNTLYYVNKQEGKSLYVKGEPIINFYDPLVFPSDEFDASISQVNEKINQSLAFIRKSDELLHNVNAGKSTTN

B1: C-based single domain antibody BBT-VC001-1 (designed binder)
chain: PSVLCLPPKPKDTLVISRTPEVTCVVSGYNPYDFPIIKFKWYVDGVEVDNAKVKPRDENSYNTDSVVSKLTVLHQDWLNGKEYKCKVSAREGGSSGEWYYDLWGPIECTISKAK
notes: expressed in E. coli HB2151; also called C-type nanobody BBT-VC001-1; BBC-VC001-1; not shown: C-terminal 6x His tag and FLAG tag
With B1, the binding result in experiment [1] is “no binding”. The “IC50 for inhibition of respiratory syncytial virus type A (infection of Hep-2 cells)” value in experiment [2] stood at 8.33 ng/mL. In addition, the “IC50 for inhibition of respiratory syncytial virus type B (infection of Hep-2 cells)” value in experiment [3] came to 8.42 ng/mL. Besides, in experiment [4], the concentration giving a half-maximal response (EC50) came out at 28 nM.

The values above are taken from patent US20250042977A1 (WUHAN BANKE BIOTECHNOLOGY, published 2025).
